Reference: the supplement of paper PMC9112550, “Optimization of the antimicrobial peptide Bac7 by deep mutational scanning” (BMC Biology, 2022)

System: Escherichia coli TOP10
Test: shrunken log2 fold change of peptide-encoding DNA abundance (4.5 h post-induction vs induction); higher = less antimicrobial activity (less host growth inhibition)
Conditions: time post-induction: 4.5 h; library: site-saturation at positions 5, 18, 19, 20
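Also: peptides expressed intracellularly from a pBAD plasmid library in pooled LB shake-flask culture, induced with 0.3% L-arabinose, DNA abundance read by NGS, three biological replicates, DESeq2 with apeglm shrinkage.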

Sequence | shrunken log2 fold change
RRIRMRPPRLPRPRPRPGCNPRP | 0.00293
RRIRMRPPRLPRPRPRPGDPPRP | 1.09
RRIRMRPPRLPRPRPRPGDTPRP | 0.064
RRIRMRPPRLPRPRPRPGEAPRP | 2.18
RRIRMRPPRLPRPRPRPGEMPRP | 0.0709
RRIRMRPPRLPRPRPRPGFCPRP | 0.442
RRIRMRPPRLPRPRPRPGFHPRP | -0.039
RRIRMRPPRLPRPRPRPGFLPRP | 0.113
RRIRMRPPRLPRPRPRPGFSPRP | 0.331
RRIRMRPPRLPRPRPRPGFYPRP | 0.0157
RRIRMRPPRLPRPRPRPGGNPRP | 0.671
RRIRMRPPRLPRPRPRPGHVPRP | 0.329
RRIRMRPPRLPRPRPRPGHYPRP | -0.196
RRIRMRPPRLPRPRPRPGIKPRP | 0.274
RRIRMRPPRLPRPRPRPGMTPRP | 1.47
RRIRMRPPRLPRPRPRPGNDPRP | 1.19
RRIRMRPPRLPRPRPRPGNPPRP | 0.639
RRIRMRPPRLPRPRPRPGQCPRP | 0.234
RRIRMRPPRLPRPRPRPGQYPRP | -0.00987
RRIRMRPPRLPRPRPRPGRGPRP | 1.26
RRIRMRPPRLPRPRPRPGVPPRP | 0.671
RRIRMRPPRLPRPRPRPGVTPRP | 0.285
RRIRMRPPRLPRPRPRPGVWPRP | 0.723
RRIRMRPPRLPRPRPRPGWWPRP | -0.026
RRIRMRPPRLPRPRPRPGWYPRP | -0.277

Sequence | shrunken log2 fold change
RRIRMRPPRLPRPRPRPGYCPRP | 0.0615
RRIRMRPPRLPRPRPRPGYRPRP | 0.158
RRIRMRPPRLPRPRPRPHAEPRP | 2.8
RRIRMRPPRLPRPRPRPHAKPRP | 0.256
RRIRMRPPRLPRPRPRPHAPPRP | 0.469
RRIRMRPPRLPRPRPRPHCGPRP | -0.033
RRIRMRPPRLPRPRPRPHCHPRP | -0.137
RRIRMRPPRLPRPRPRPHDCPRP | 0.0419
RRIRMRPPRLPRPRPRPHDHPRP | -0.0397
RRIRMRPPRLPRPRPRPHDMPRP | 0.0059
RRIRMRPPRLPRPRPRPHEDPRP | 0.465
RRIRMRPPRLPRPRPRPHEVPRP | 0.16
RRIRMRPPRLPRPRPRPHGCPRP | 0.669
RRIRMRPPRLPRPRPRPHGEPRP | 0.365
RRIRMRPPRLPRPRPRPHHDPRP | 0.0126
RRIRMRPPRLPRPRPRPHHFPRP | -0.00112
RRIRMRPPRLPRPRPRPHHPPRP | -0.234
RRIRMRPPRLPRPRPRPHHSPRP | -0.236
RRIRMRPPRLPRPRPRPHIFPRP | -0.268
RRIRMRPPRLPRPRPRPHIYPRP | -0.289
RRIRMRPPRLPRPRPRPHKAPRP | 0.000331
RRIRMRPPRLPRPRPRPHKYPRP | -0.152
RRIRMRPPRLPRPRPRPHMHPRP | 0.00917
RRIRMRPPRLPRPRPRPHNNPRP | -0.153
RRIRMRPPRLPRPRPRPHNPPRP | -0.329

Sequence | shrunken log2 fold change
RRIRMRPPRLPRPRPRPHNYPRP | -0.0828
RRIRMRPPRLPRPRPRPHPAPRP | 0.903
RRIRMRPPRLPRPRPRPHPKPRP | 0.0698
RRIRMRPPRLPRPRPRPHQNPRP | 0.114
RRIRMRPPRLPRPRPRPHVGPRP | 0.105
RRIRMRPPRLPRPRPRPHVMPRP | -0.192
RRIRMRPPRLPRPRPRPHVPPRP | 0.107
RRIRMRPPRLPRPRPRPHVQPRP | -0.0996
RRIRMRPPRLPRPRPRPHWGPRP | 0.12
RRIRMRPPRLPRPRPRPHWQPRP | 0.161
RRIRMRPPRLPRPRPRPHYWPRP | -0.121
RRIRMRPPRLPRPRPRPIAGPRP | -0.0293
RRIRMRPPRLPRPRPRPICAPRP | 0.486
RRIRMRPPRLPRPRPRPIFDPRP | 0.00763
RRIRMRPPRLPRPRPRPIFVPRP | -0.111
RRIRMRPPRLPRPRPRPIFWPRP | 0.337
RRIRMRPPRLPRPRPRPIGIPRP | -0.0706
RRIRMRPPRLPRPRPRPIHDPRP | 0.0367
RRIRMRPPRLPRPRPRPIKLPRP | 0.0649
RRIRMRPPRLPRPRPRPIKMPRP | 0.14
RRIRMRPPRLPRPRPRPILPPRP | 0.0577
RRIRMRPPRLPRPRPRPINNPRP | -0.347
RRIRMRPPRLPRPRPRPIPMPRP | 0.414
RRIRMRPPRLPRPRPRPIPSPRP | 0.0101
RRIRMRPPRLPRPRPRPIQHPRP | -0.124

Sequence | shrunken log2 fold change
RRIRMRPPRLPRPRPRPIQLPRP | -0.0799
RRIRMRPPRLPRPRPRPIRCPRP | 0.086
RRIRMRPPRLPRPRPRPIRDPRP | -0.261
RRIRMRPPRLPRPRPRPISSPRP | -0.0416
RRIRMRPPRLPRPRPRPISWPRP | 0.109
RRIRMRPPRLPRPRPRPITIPRP | -0.315
RRIRMRPPRLPRPRPRPITYPRP | -0.0199
RRIRMRPPRLPRPRPRPIVMPRP | 0.163
RRIRMRPPRLPRPRPRPIYCPRP | -0.163
RRIRMRPPRLPRPRPRPKACPRP | 0.558
RRIRMRPPRLPRPRPRPKAVPRP | 0.0216
RRIRMRPPRLPRPRPRPKCSPRP | -0.0186
RRIRMRPPRLPRPRPRPKEFPRP | 0.103
RRIRMRPPRLPRPRPRPKEHPRP | 0.617
RRIRMRPPRLPRPRPRPKFSPRP | 0.0925
RRIRMRPPRLPRPRPRPKFWPRP | 1.87
RRIRMRPPRLPRPRPRPKGTPRP | 1.69
RRIRMRPPRLPRPRPRPKITPRP | 0.19
RRIRMRPPRLPRPRPRPKKGPRP | 0.364
RRIRMRPPRLPRPRPRPKKKPRP | 1.61
RRIRMRPPRLPRPRPRPKKQPRP | 0.0673
RRIRMRPPRLPRPRPRPKLLPRP | 0.0392
RRIRMRPPRLPRPRPRPKLVPRP | 0.115
RRIRMRPPRLPRPRPRPKMCPRP | 0.0261
RRIRMRPPRLPRPRPRPKMKPRP | 1.45

Sequence | shrunken log2 fold change
RRIRMRPPRLPRPRPRPKMLPRP | 0.231
RRIRMRPPRLPRPRPRPKNFPRP | -0.15
RRIRMRPPRLPRPRPRPKNTPRP | 0.575
RRIRMRPPRLPRPRPRPKQLPRP | 0.83
RRIRMRPPRLPRPRPRPKRNPRP | 1.66
RRIRMRPPRLPRPRPRPKSFPRP | -0.015
RRIRMRPPRLPRPRPRPKSYPRP | 0.0526
RRIRMRPPRLPRPRPRPKTEPRP | 0.155
RRIRMRPPRLPRPRPRPKTTPRP | 1.09
RRIRMRPPRLPRPRPRPKVLPRP | 0.0109
RRIRMRPPRLPRPRPRPKVQPRP | 1.85
RRIRMRPPRLPRPRPRPKYTPRP | 0.169
RRIRMRPPRLPRPRPRPLANPRP | 0.235
RRIRMRPPRLPRPRPRPLASPRP | 1.34
RRIRMRPPRLPRPRPRPLCPPRP | -0.0953
RRIRMRPPRLPRPRPRPLEYPRP | 0.0611
RRIRMRPPRLPRPRPRPLGMPRP | -0.112
RRIRMRPPRLPRPRPRPLHEPRP | 0.545
RRIRMRPPRLPRPRPRPLHQPRP | 0.0887
RRIRMRPPRLPRPRPRPLHVPRP | -0.21
RRIRMRPPRLPRPRPRPLMCPRP | -0.249
RRIRMRPPRLPRPRPRPLNPPRP | 0.0743
RRIRMRPPRLPRPRPRPLPLPRP | 0.718
RRIRMRPPRLPRPRPRPLPWPRP | 1.74
RRIRMRPPRLPRPRPRPLQLPRP | 0.102

Sequence | shrunken log2 fold change
RRIRMRPPRLPRPRPRPLQQPRP | 2.85
RRIRMRPPRLPRPRPRPLQVPRP | 0.21
RRIRMRPPRLPRPRPRPLTLPRP | -0.1
RRIRMRPPRLPRPRPRPLWLPRP | 0.563
RRIRMRPPRLPRPRPRPMCAPRP | 1.57
RRIRMRPPRLPRPRPRPMCWPRP | 2.09
RRIRMRPPRLPRPRPRPMEAPRP | 0.0555
RRIRMRPPRLPRPRPRPMENPRP | 0.76
RRIRMRPPRLPRPRPRPMFLPRP | -0.273
RRIRMRPPRLPRPRPRPMFWPRP | 0.0479
RRIRMRPPRLPRPRPRPMGRPRP | -0.0209
RRIRMRPPRLPRPRPRPMGSPRP | -0.0199
RRIRMRPPRLPRPRPRPMIQPRP | 0.00725
RRIRMRPPRLPRPRPRPMKLPRP | -0.13
RRIRMRPPRLPRPRPRPMMKPRP | 0.0962
RRIRMRPPRLPRPRPRPMPDPRP | 0.716
RRIRMRPPRLPRPRPRPMPPPRP | 1.07
RRIRMRPPRLPRPRPRPMREPRP | 0.279
RRIRMRPPRLPRPRPRPMRGPRP | 1.53
RRIRMRPPRLPRPRPRPMRLPRP | 0.416
RRIRMRPPRLPRPRPRPMSHPRP | -0.121
RRIRMRPPRLPRPRPRPMSKPRP | 0.0165
RRIRMRPPRLPRPRPRPMTHPRP | 0.173
RRIRMRPPRLPRPRPRPMTWPRP | 0.0101
RRIRMRPPRLPRPRPRPMWVPRP | 0.0332
